For the experiment, the target named is bovine submaxillary mucin type I (bovine). Put plainly: competition ELISA with biotinylated CC49 SCA, mucin. A general note: An ELISA detects its analyte on a solid surface through an enzyme-linked reagent.

As a reminder, the Kd is the constant that tells how readily two partners part at equilibrium.

In turn, biotinylated CC49 SCA (scFv) displayed a dissociation constant Kd of 6.2 nM. In other words, the single-digit nanomolar range.
As for “non-PEGylated CC49 SCA (Native-CC49) (scFv)”, the dissociation constant Kd was determined as 3.6 nM.

The values above are taken from patent publication US20020161201A1.
